Columns and labels:
purified vimentin-His6 = biological target: T1, purified vimentin-His6 (Homo sapiens, UniProt P08670); assay: ELISA; solid-phase phage ELISA of 47 single clones after two cycles of biopanning against full-length vimentin; conditions: one partner purified
T1 construct: vimentin, full length; Antigen of immunisation, biopanning and phage ELISA; details in the Supplementary methods; also called recombinant vimentin; full-length vimentin

[1] = biological target: T2, endogenous vimentin (MDCK cells) (Canis lupus familiaris, UniProt A0A8C0N8E3); assay: pull-down; nanobodies covalently coupled to agarose (NHS-Sepharose) beads incubated with soluble protein fractions of cell lines (HeLa, MDCK, A549 or HEK293T), 16 h at 4 °C; immunoblot with anti-vimentin IgG; conditions: one partner purified
T2 construct: vimentin, endogenous in MDCK cells; source: endogenous, MDCK lysate; fixed MDCK cells
T2 sequence (A0A8C0N8E3 whole entry): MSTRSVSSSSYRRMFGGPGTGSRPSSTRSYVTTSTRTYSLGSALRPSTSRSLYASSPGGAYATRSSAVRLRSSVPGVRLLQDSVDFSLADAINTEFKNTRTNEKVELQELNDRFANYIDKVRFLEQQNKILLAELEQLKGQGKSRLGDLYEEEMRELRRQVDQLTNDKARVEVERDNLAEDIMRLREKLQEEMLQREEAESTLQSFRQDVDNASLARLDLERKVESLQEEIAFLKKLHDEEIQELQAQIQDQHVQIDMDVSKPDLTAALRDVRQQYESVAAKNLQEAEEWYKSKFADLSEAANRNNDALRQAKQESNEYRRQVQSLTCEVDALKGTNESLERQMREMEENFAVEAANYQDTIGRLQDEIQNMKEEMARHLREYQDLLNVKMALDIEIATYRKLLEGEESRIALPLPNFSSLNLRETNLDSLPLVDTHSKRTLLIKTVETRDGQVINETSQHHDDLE

[2] = biological target: T3, vimentin rod domain fused to GFP (Homo sapiens, UniProt P08670); assay: pull-down; immobilized nanobodies incubated with lysates of HEK293T cells transfected with GFP fusions of vimentin or its domains; immunoblot with anti-GFP antibody; conditions: one partner purified
T3 construct: vimentin central helical rod domain, aa 96-407; also called central helical rod domain (aa 96-407); source: HEK293T, transfected, in lysate
T3 sequence (P08670 96-407): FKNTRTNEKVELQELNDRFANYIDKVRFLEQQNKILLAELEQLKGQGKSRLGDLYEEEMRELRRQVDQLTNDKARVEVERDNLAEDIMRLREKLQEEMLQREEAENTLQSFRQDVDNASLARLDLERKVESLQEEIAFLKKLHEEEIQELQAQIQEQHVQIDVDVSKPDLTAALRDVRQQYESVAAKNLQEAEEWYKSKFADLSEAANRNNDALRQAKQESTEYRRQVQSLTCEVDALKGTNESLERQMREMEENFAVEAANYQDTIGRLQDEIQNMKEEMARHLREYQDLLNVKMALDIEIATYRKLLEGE

[3] = biological target: endogenous vimentin (human cell lines) (human (endogenous in HeLa, HEK293T, A549, MDA-MB-231)) (UniProt P08670)
endogenous vimentin (human cell lines) (human (endogenous in HeLa, HEK293T, A549, MDA-MB-231)), sequence (P08670 whole entry): as the sequence (A0A8C0N8E3 whole entry) above, with G21A, T27S, A60V, S201N, D239E, D251E, M258V, N317T, A412S counted along it

[4] = biological target: T2, endogenous vimentin (MDCK cells); assay: immunostaining of cells or tissue; fixed (4% PFA), permeabilised MDCK, HeLa and MDA-MB-231 cells; ATTO488-labeled nanobodies 10 ug/ml in 3% BSA in PBS, 16 h at 4 °C; compared or co-stained with an anti-vimentin IgG; conditions: one partner purified
GFP-labeled vimentin = biological target: T4, GFP-labeled vimentin (Homo sapiens, UniProt P08670); assay: BLI; fiber optic sensors with immobilized VB3 and VB6; serial dilutions of the soluble protein fraction of HEK293T cells comprising GFP-VIM or GFP; conditions: one partner purified
T4 construct: vimentin, full length; Expression constructs are described in the Supplementary methods; also called GFP-VIM; eGFP-Vimentin; source: HEK293T, transfected, in lysate (soluble protein fraction)
T4 sequence (P08670 whole entry): as the sequence (A0A8C0N8E3 whole entry) above, with G21A, T27S, A60V, S201N, D239E, D251E, M258V, N317T, A412S counted along it

T1 sequence (P08670 whole entry): as the sequence (A0A8C0N8E3 whole entry) above, with G21A, T27S, A60V, S201N, D239E, D251E, M258V, N317T, A412S counted along it

B1: VE3, phage-displayed clone (VHH)
VHH: QVQLVESGGGLVQPGGSLRLSCAASGSTFRIRTMGWYRQAPGKQRELVAVSTNSGGSVNYADSVKGRFTISIDSVKKTTDLQMNSLKPEDTAVYYCNAYDSDYLDYYGQGTQVTVSS
notes: derived from a heavy-chain-only antibody
binding result (purified vimentin-His6): binds

B2: VC4, phage-displayed clone (VHH)
VHH: QVQLVESGGGLVQPGGSLRLSCLASGFSFGSYRMHWVRQAPGKGLEWVSGISSGGGTTYYADSVKGRFTISRDNAKNMLYLQMNNLQPEDTAVYYCLGGDWADWGQGTQVTVSS
notes: VH domain derived from a conventional IgG by its hallmark residues
binding result (purified vimentin-His6): binds

B3: VB3 nanobody (VHH)
VHH: QVQLVESGGGSVQAGDSLRLSCAASGNTFSIKVMGWYRQAPGKQRELVAVSTNSGASVNYANSVKGRFTISIDSVKKTTYLQMNSLKPEDTAVYFCNAYDGRYEDYYGQGTQVTVSS
notes: By its hallmark residues derived from a heavy-chain-only antibody; Used immobilised on BLI sensors and covalently coupled to NHS-Sepharose; Construct and purification details are in the Supplementary methods; also called Nb VB3; source: E. coli, recombinantly expressed and purified
binding result [1]: binds | binding result [2]: binds | FRAP in HeLa cells: half time of fluorescence recovery of the chromobody [3]: 4.3 s | FRAP in HeLa cells: total fluorescence recovery of the chromobody in the photobleached region [3]: 58.4%

B4: VF6, phage-displayed clone (VHH)
VHH: DVQLVESGGGLVEAGGSLRLSCAASGRTFSPYVMGWYRQAPGNQRELVAVSTNSGASVNYANSVKGRFTISIDSVKKTTYLQMNSLKPEDTAVYFCNAYDGRYEDYYGQGTQVTVSS
notes: as for B1
binding result (purified vimentin-His6): binds

B5: VG1, phage-displayed clone (VHH)
VHH: DVQLVESGGGLVQAGGSLKLSCKASGSTYSIHVYGWYRQAPGKQRELVAVSTNSGASVNYANSVKGRFTISIDSVKKTTYLQMNSLKPEDTAVYFCNAYDGRYEDYYGQGTQVTVSS
notes: as for B1
binding result (purified vimentin-His6): binds

B6: VB6 nanobody coupled to ATTO488 (VHH)
VHH: QVQLVESGGGLVQSGGSLTLTCAASGFTFSAASMRWVRQVPGKGLEWVATIDGTGANSYYSESAKGRFTISRDNARNTLRLQMNNLKPDDTAVYYCANFGRNYWGKGTQVTVSS
notes: also called VB6_(ATTO488); source: E. coli, purified, chemically coupled to ATTO488 NHS-ester
binding result [4]: binds

B7: VB6 nanobody (VHH)
VHH: QVQLVESGGGLVQSGGSLTLTCAASGFTFSAASMRWVRQVPGKGLEWVATIDGTGANSYYSESAKGRFTISRDNARNTLRLQMNNLKPDDTAVYYCANFGRNYWGKGTQVTVSS
notes: Single-domain antibody; Used immobilised on BLI sensors and covalently coupled to NHS-Sepharose; Construct details are in the Supplementary methods; also called Nb VB6; source: E. coli, recombinantly expressed and purified
Kd (GFP-labeled vimentin): 37 nM | koff (GFP-labeled vimentin): 0.0176 s⁻¹ | kon (GFP-labeled vimentin): 475000 M⁻¹ s⁻¹

B8: VH3, phage-displayed clone (VHH)
VHH: QVQLVESGGGLAQPGGSLRLSCAASGFTFSSYAMSWVRQAPGKGLEWVSGITSGGSSTYYASSVKGRFTISRDNTKNTLYLQMDNLKSDDTAVYYCAKAWGSASSSRGQGTQVTVSS
notes: as for B2
binding result (purified vimentin-His6): binds

B9: VG4, phage-displayed clone (VHH)
VHH: QVQLVESGGGLVQPGGSLRLSCVASGFTFSDYWMYWVRQAPGKGLEWVSGISPGGTTTYADSVKGRFTTSRDNTRNTLYLQMNELKPEDTAVYYCAKDLNWVDSDDYWGRGTQVTVSS
notes: as for B2
binding result (purified vimentin-His6): binds
